# Experimental data taken from doi:10.1101/2025.05.13.653872, “A novel non-catalytic function of PA2803-encoded PcrP contributes to polymyxin B resistance in P. aeruginosa and redefines the functional role of the PA2803 subfamily” (bioRxiv, 2025).
# Molecular target: the molecule itself
# Assay: cross-linking; 50 μM purified PcrP with 0.02, 0.05, 0.1 and 0.2% glutaraldehyde for 2 min in 50 mM NaCl, 1% glycerol, 20 mM HEPES pH 7.8; stopped with Tris-HCl pH 8.0; 12% SDS-PAGE, Coomassie
protein,measurement,value
"6XHis-PcrP (PA2803), recombinant, purified (natural protein, PcrP (PA2803), P. aeruginosa PAO1; No tag cleavage step is described; The reverse primer carries the stop codon, so the His tag of the vector should be N-terminal; also called 6XHis-PA2803; pAAK001; source: E. coli BL21(DE3), purified (Ni-NTA)) MPSSDQLPRFTALLFGLSGGLVDFGARTLSLALLRSHPHSPAEHLRDASLLPFAEAQSFLLRRKPNKSERQRLEQALDEAAGEQAEAIAGAVALLESLDEQRIPYAWQDELPESVCQRLAAPLGRANALIPLAGARPWPAPDGCWQALARLGIERLDGCVLVSAQPRQLQAGLNAGLWTIGLAASGPSCGLSPADWDALGHTERDRLRADATLELYRLGVHSVIDHLGELQPCLHDLAVRRLKGEKP",stoichiometry N,2
